# Reference: paper PMC11417369, “DNA sequence and chromatin differentiate sequence-specific transcription factor binding in the human malaria parasite Plasmodium falciparum”
# B1: GTGCAC_site10664 (dsDNA)
# DNA 1: TATTCATATTTAAAGGTGCAATATTTATTTTGTACA
# DNA 2: TGTACAAAATAAATATTGCACCTTTAAATATGAATA
# B2: GTGCAC_negctrl_site223 (dsDNA)
# DNA 1: AAAAGATTAAGTAGAATAATGTTCTTTCCCAACATA
# DNA 2: TATGTTGGGAAAGAACATTATTCTACTTAATCTTTT
# B3: GTGCAC_site9498 (dsDNA)
# DNA 1: ATTTGTGATTTGTGTGTGCACGTATTTACAGAACAA
# DNA 2: TTGTTCTGTAAATACGTGCACACACAAATCACAAAT
# B4: GTGCAC_negctrl_site353 (dsDNA)
# DNA 1: GAATATTTATGATGAACTATTAATTAATTTTACATA
# DNA 2: TATGTAAAATTAATTAATAGTTCATCATAAATATTC
# B5: GTGCAC_negctrl_site586 (dsDNA)
# DNA 1: ATATGATTATTATTATATAAATTATAAAGTCTAATA
# DNA 2: TATTAGACTTTATAATTTATATAATAATAATCATAT
# B6: GTGCAC_negctrl_site84 (dsDNA)
# DNA 1: TTGAGCATAAAATTTGGAAACCTCAATCGGACAAAA
# DNA 2: TTTTGTCCGATTGAGGTTTCCAAATTTTATGCTCAA
# B7: GTGCAC_negctrl_site659 (dsDNA)
# DNA 1: TTGTTAATATGATAAAAGAGGAATATTCTCTTCCTA
# DNA 2: TAGGAAGAGAATATTCCTCTTTTATCATATTAACAA
# B8: GTGCAC_negctrl_site43 (dsDNA)
# DNA 1: ATTTATAAAATATAATTACATTTTTAAATAATAAAA
# DNA 2: TTTTATTATTTAAAAATGTAATTATATTTTATAAAT
# B9: GTGCAC_negctrl_site384 (dsDNA)
# DNA 1: TTATAATGAAATATATTCTTATTCTTTTTTTTTTTT
# DNA 2: AAAAAAAAAAAAGAATAAGAATATATTTCATTATAA
# B10: GTGCAC_site10258 (dsDNA)
# DNA 1: GCGTGTGTACAATGAGTGCATATCTAAAGGGAAGAT
# DNA 2: ATCTTCCCTTTAGATATGCACTCATTGTACACACGC
# B11: GTGCAC_negctrl_site258 (dsDNA)
# DNA 1: AATATTTTGTTATTTATTTAATCTAATATTATGATA
# DNA 2: TATCATAATATTAGATTAAATAAATAACAAAATATT
# B12: GTGCAC_site9800 (dsDNA)
# DNA 1: AATCATATTAGTATGGTGCAATATATATATAAATAT
# DNA 2: ATATTTATATATATATTGCACCATACTAATATGATT
# B13: GTGCAC_negctrl_site563 (dsDNA)
# DNA 1: ATTCAATAATTGTTTTTTTTCTTTTTGTTTTTGTTT
# DNA 2: AAACAAAAACAAAAAGAAAAAAAACAATTATTGAAT
# B14: GTGCAC_negctrl_site608 (dsDNA)
# DNA 1: TAATGAGGAAAAAGTGTGTTAAGATTTTATAATTTA
# DNA 2: TAAATTATAAAATCTTAACACACTTTTTCCTCATTA
# B15: GTGCAC_negctrl_site296 (dsDNA)
# DNA 1: ATTTAAAATAGAAGTTATATTTATATGGGTGAAAAA
# DNA 2: TTTTTCACCCATATAAATATAACTTCTATTTTAAAT
# B16: GTGCAC_negctrl_site8 (dsDNA)
# DNA 1: TTTTGTAGCAAAAAATAGGAAAAAAAAAAATTAAAT
# DNA 2: ATTTAATTTTTTTTTTTCCTATTTTTTGCTACAAAA
# B17: GTGCAC_negctrl_site327 (dsDNA)
# DNA 1: GCACACATATAATTAAACATATATTTGTATTATTTT
# DNA 2: AAAATAATACAAATATATGTTTAATTATATGTGTGC
# B18: GTGCAC_negctrl_site721 (dsDNA)
# DNA 1: GTTTTAAAATTAAATATTATGGCATAATTCAAGAAA
# DNA 2: TTTCTTGAATTATGCCATAATATTTAATTTTAAAAC
# B19: GTGCAC_negctrl_site292 (dsDNA)
# DNA 1: TTACGTATGTATTATGTTGTATATGAAATTAAAAAA
# DNA 2: TTTTTTAATTTCATATACAACATAATACATACGTAA
# B20: GTGCAC_negctrl_site277 (dsDNA)
# DNA 1: TTTTTTAAATATTATTTTTATGAGTAAATATATTAT
# DNA 2: ATAATATATTTACTCATAAAAATAATATTTAAAAAA
# B21: GTGCAC_negctrl_site106 (dsDNA)
# DNA 1: AAATAAAATAATTATAATACTAAAAATAATACATAA
# DNA 2: TTATGTATTATTTTTAGTATTATAATTATTTTATTT
# B22: GTGCAC_negctrl_site567 (dsDNA)
# DNA 1: AATATAAACATAGATAGATAAATAAATAAATAAACA
# DNA 2: TGTTTATTTATTTATTTATCTATCTATGTTTATATT
# B23: GTGCAC_negctrl_site529 (dsDNA)
# DNA 1: TTATTATATATGTTCACATAAATACATAAATATATA
# DNA 2: TATATATTTATGTATTTATGTGAACATATATAATAA
# B24: GTGCAC_negctrl_site349 (dsDNA)
# DNA 1: AAATAAAAATAAAATAAAATAAAATTAAATGGGAAT
# DNA 2: ATTCCCATTTAATTTTATTTTATTTTATTTTTATTT
# B25: GTGCAC_negctrl_site86 (dsDNA)
# DNA 1: ATTTTTTTATACAATTTTATATATTAAATATTATAA
# DNA 2: TTATAATATTTAATATATAAAATTGTATAAAAAAAT
# B26: GTGCAC_negctrl_site403 (dsDNA)
# DNA 1: TATTTCATCTTTTAAGAAGGTACCCATATGTCATAT
# DNA 2: ATATGACATATGGGTACCTTCTTAAAAGATGAAATA
# B27: GTGCAC_negctrl_site174 (dsDNA)
# DNA 1: AAGAAAAAAAAAAAAAAAAAAAAAAAAAAGGAAAAA
# DNA 2: TTTTTCCTTTTTTTTTTTTTTTTTTTTTTTTTTCTT
# B28: GTGCAC_negctrl_site688 (dsDNA)
# DNA 1: ATAATTATTTAATATATATATATTATTTCGAATGTT
# DNA 2: AACATTCGAAATAATATATATATATTAAATAATTAT
# B29: GTGCAC_negctrl_site578 (dsDNA)
# DNA 1: TTTTATTTTATTCAATTTTTACTTTTATAAAAATAT
# DNA 2: ATATTTTTATAAAAGTAAAAATTGAATAAAATAAAA
# B30: GTGCAC_negctrl_site334 (dsDNA)
# DNA 1: TTTTTAATTAACTTTTTATAAATAAATAAAAATATA
# DNA 2: TATATTTTTATTTATTTATAAAAAGTTAATTAAAAA
# Target: T1, SIP2 D1 (Plasmodium falciparum, UniProt C6KSN9 177-235)
# T1 sequence: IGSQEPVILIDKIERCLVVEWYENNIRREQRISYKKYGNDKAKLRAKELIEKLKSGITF
# Assay: gcPBM; about 25 ug protein; PBS, 1% milk, 0.2 mg/ml BSA, salmon testes DNA, 0.03% Triton X-100
# Details: tags: N-terminal GST (pGEX-4T-1), kept; label: surface-attached array probe
row,Binder,binding signal
1,B1,"9.97 ln median PBM intensity, better of two orientations"
2,B2,"6.44 ln median PBM intensity, better of two orientations"
3,B3,"9.78 ln median PBM intensity, better of two orientations"
4,B4,"6.72 ln median PBM intensity, better of two orientations"
5,B5,"6.69 ln median PBM intensity, better of two orientations"
6,B6,"6.59 ln median PBM intensity, better of two orientations"
7,B7,"6.7 ln median PBM intensity, better of two orientations"
8,B8,"6.72 ln median PBM intensity, better of two orientations"
9,B9,"6.7 ln median PBM intensity, better of two orientations"
10,B10,"9.38 ln median PBM intensity, better of two orientations"
11,B11,"6.61 ln median PBM intensity, better of two orientations"
12,B12,"9.96 ln median PBM intensity, better of two orientations"
13,B13,"6.64 ln median PBM intensity, better of two orientations"

# Target: AP2-I D3 (Plasmodium falciparum, UniProt Q8IJW6 910-1027)
# Assay: as above
# Details: tags: N-terminal GST (pGEX-4T-1), kept; label: surface-attached array probe
row,Binder,binding signal
1,B14,"7.28 ln median PBM intensity, better of two orientations"
2,B15,"7.29 ln median PBM intensity, better of two orientations"
3,B1,"11.2 ln median PBM intensity, better of two orientations"
4,B16,"7.26 ln median PBM intensity, better of two orientations"
5,B2,"7.05 ln median PBM intensity, better of two orientations"
6,B17,"7.22 ln median PBM intensity, better of two orientations"
7,B3,"10.7 ln median PBM intensity, better of two orientations"
8,B4,"6.76 ln median PBM intensity, better of two orientations"
9,B5,"6.95 ln median PBM intensity, better of two orientations"
10,B18,"7.22 ln median PBM intensity, better of two orientations"
11,B19,"7.28 ln median PBM intensity, better of two orientations"
12,B6,"6.92 ln median PBM intensity, better of two orientations"
13,B7,"6.7 ln median PBM intensity, better of two orientations"
14,B20,"7.22 ln median PBM intensity, better of two orientations"
15,B21,"7.24 ln median PBM intensity, better of two orientations"
16,B22,"7.22 ln median PBM intensity, better of two orientations"
17,B8,"7.13 ln median PBM intensity, better of two orientations"
18,B23,"7.24 ln median PBM intensity, better of two orientations"
19,B24,"7.26 ln median PBM intensity, better of two orientations"
20,B25,"7.23 ln median PBM intensity, better of two orientations"
21,B9,"7.14 ln median PBM intensity, better of two orientations"
22,B10,"10 ln median PBM intensity, better of two orientations"
23,B11,"6.98 ln median PBM intensity, better of two orientations"
24,B12,"12 ln median PBM intensity, better of two orientations"
25,B26,"7.27 ln median PBM intensity, better of two orientations"
26,B27,"7.21 ln median PBM intensity, better of two orientations"
27,B13,"6.85 ln median PBM intensity, better of two orientations"
28,B28,"7.24 ln median PBM intensity, better of two orientations"
29,B29,"7.27 ln median PBM intensity, better of two orientations"
30,B30,"7.2 ln median PBM intensity, better of two orientations"
